B1: HDV Ribozyme (parent)
chain: GGCCGGCAUGGUCCCAGCCUCCUCGCUGGCGCCGGCUGGGCAACAUUCCGAGGGGACCGUCCCCUCGGUAAUGGCGAAUGGGACCCA

In the data set the parent is B1. Put plainly: self-cleavage, relative activity (ratio to wild type); higher = more cleavage; co-transcriptional.
Turning to C30A C58A, the self-cleavage worked out at 0.623.
For the variant G28U U69G, the self-cleavage worked out at 0.208.
In the case of G29C A77U, the self-cleavage came to 0.0369.
On to C30G U60A, for which the self-cleavage was determined as 0.154.
In the case of G29U G39C, the self-cleavage was 0.0302.
As to C30G U72G, the self-cleavage came to 0.0923.
In the case of C30G A70U, the self-cleavage amounted to 0.0468.
Take C30A C41U: the self-cleavage is 0.328.
On to C30G G55A, for which the self-cleavage was 0.0852.
Consider C30G G55U, for which the self-cleavage worked out at 0.0225.
On to G29A G53C, for which the self-cleavage worked out at 0.134.
Consider G29A G53A, for which the self-cleavage worked out at 0.217.
Regarding G29U C86U, the self-cleavage was determined as 0.0959.
For G29C G39U, the self-cleavage came out at 0.0992.
Regarding G29A A42G, the self-cleavage amounted to 0.0415.
With G29A A42U the figure was 0.222; with G29U C41G, 0.0302; with G29U C41U, 0.0432.
As to G28C G50U, the self-cleavage came out at 0.0519.
Take C30U A87C: the self-cleavage came out at 0.755.
For the variant C30A G50C, the self-cleavage turned out to be 0.577.
Regarding C30A G40A, the self-cleavage is 0.462.
As for C30U A56U, the self-cleavage came to 0.782.
With G29C the figure was 0.1.
With G29A the figure was 0.186; with G29U, 0.0885.
As for C30G G80C, the self-cleavage amounted to 0.0462.
For G28C G67C, the self-cleavage was found to be 0.0923.
With G28C G67A the figure was 0.0707.
In the case of G28C G67U, the self-cleavage worked out at 0.
For C30U G54U, the self-cleavage was found to be 0.597.
Take C30G U65C: the self-cleavage was 0.
For C30G U65G, the self-cleavage came to 0.0346.
With G29C U37A the figure was 0.201.
As for G29C U37G, the self-cleavage amounted to 0.128.
With G29C U37C the figure was 0.0898; with G28U C41G, 0.116; with G28U C41A, 0.138.
As to G29U G54A, the self-cleavage was determined as 0.189.
Turning to G29U G54C, the self-cleavage stood at 0.0282.
With C30A G68C the figure was 0.308; with G29C G40A, 0.0804.
As for C30G C84U, the self-cleavage is 0.0268.
For C30G C84G, the self-cleavage turned out to be 0.0755.
As to G29A G34A, the self-cleavage stood at 0.131.
Regarding G29A G34C, the self-cleavage was 0.148.
With G29C G54C the figure was 0.0692.
For C30U G55A, the self-cleavage was found to be 0.691.
With G29C C66U, the self-cleavage came to 0.0573.
With C30G A83G the figure was 0.
Regarding C30G A83U, the self-cleavage was 0.16.
Take G29C U72C: the self-cleavage amounted to 0.
With C30G C33U, the self-cleavage stood at 0.
Regarding G29U C66U, the self-cleavage was 0.147.
With G28U A42G the figure was 0.0426; with C30G C86G, 0.0536; with G29U G74U, 0.0963.
For the variant G29U G74A, the self-cleavage amounted to 0.0978.
With G29A A71G the figure was 0.032; with C30A G53A, 0.389; with G29A U69C, 0.131.
Take G28C G74A: the self-cleavage stood at 0.108.
As for G29A C61G, the self-cleavage came to 0.107.
G29C G76A: the self-cleavage was 0.0545.
As to G29C C48A, the self-cleavage came to 0.
With G29C A51C the figure was 0.231; with G29U C57U, 0.0911.
For the variant G28C U37C, the self-cleavage was found to be 0.101.
G29A C62U: the self-cleavage was determined as 0.159.
With C30G G74C the figure was 0.108; with C30G G74U, 0.128; with G28U C86A, 0.
For G28U C86U, the self-cleavage came out at 0.0594.
As for G28U A71G, the self-cleavage came to 0.0554.
With C30U C58G the figure was 0.569; with C30U C58A, 0.697; with C30G G82A, 0.0941.
Consider G29U U47G, for which the self-cleavage stood at 0.
With G29A U79G the figure was 0.154; with G29U U65A, 0.175.
In the case of G28U C61A, the self-cleavage was 0.201.
As to G28U U37A, the self-cleavage worked out at 0.0773.
In the case of G29U A45U, the self-cleavage came to 0.
With C30G U79G the figure was 0.128.
Take C30G U37C: the self-cleavage came out at 0.
Turning to G29A U37G, the self-cleavage came to 0.0723.
With C30G A43C the figure was 0.0489.
In the case of G28U U60G, the self-cleavage was found to be 0.123.
On to C30G A42C, for which the self-cleavage came to 0.151.
In the case of C30G C41U, the self-cleavage was 0.0702.
For G28U G81U, the self-cleavage was 0.202.
As to G28U G29A, the self-cleavage turned out to be 0.0755.
G29U A87G: the self-cleavage was found to be 0.0585.
With G29U A87C the figure was 0.0349.
Consider G29C U79C, for which the self-cleavage was found to be 0.138.
As for G29U U72G, the self-cleavage stood at 0.
Consider C30U A77U, for which the self-cleavage was 0.215.
For C30U A77G, the self-cleavage is 0.489.
As to G29A G50U, the self-cleavage amounted to 0.241.
Regarding G29A G50A, the self-cleavage worked out at 0.134.
On to C30U C61G, for which the self-cleavage is 0.369.
Consider C30U C61A, for which the self-cleavage turned out to be 0.718.
Turning to G28C G76U, the self-cleavage was found to be 0.0378.
For G29C C57U, the self-cleavage was found to be 0.0604.
G29A C44U: the self-cleavage worked out at 0.151.
For the variant G29C U46G, the self-cleavage came out at 0.0723.
With G28U G52U the figure was 0.211; with G28U G52A, 0.0733; with C30A U60A, 0.692.
G29C G81C: the self-cleavage was 0.18.
With C30G A87C the figure was 0.122.
Turning to G29U G73U, the self-cleavage amounted to 0.095.
Regarding G29U G73C, the self-cleavage amounted to 0.185.
With G28U G73U the figure was 0.169; with G28C U65G, 0.0665.
Turning to G28C U65A, the self-cleavage was 0.104.
In the case of C30A C62G, the self-cleavage turned out to be 0.321.
G29C G38U: the self-cleavage turned out to be 0.0627.
In the case of G29C C33G, the self-cleavage is 0.185.
Take G29C C33U: the self-cleavage was 0.0941.
C30A A56C: the self-cleavage amounted to 0.875.
Take C30G C66G: the self-cleavage amounted to 0.0326.
On to C30A A71U, for which the self-cleavage is 0.386.
On to G29A U47G, for which the self-cleavage is 0.0978.
G29C U69G: the self-cleavage is 0.0504.
For G29C U69C, the self-cleavage was found to be 0.
On to G29C C44G, for which the self-cleavage is 0.
On to C30U A71G, for which the self-cleavage is 0.633.
Turning to G29C G52A, the self-cleavage turned out to be 0.0615.
With C30U G50U the figure was 0.645; with C30U G50C, 0.677.
As for G29U C49U, the self-cleavage worked out at 0.0583.
In the case of G29U C49A, the self-cleavage stood at 0.111.
With C30A A42G, the self-cleavage turned out to be 0.
With G29A G73U the figure was 0.112; with G28C G54C, 0.0519.
Consider G28C G54U, for which the self-cleavage was found to be 0.0248.
As for G28U A78U, the self-cleavage was 0.0723.
Take G28C G81A: the self-cleavage is 0.104.
Take G28U G59C: the self-cleavage amounted to 0.136.
As for G28U G59U, the self-cleavage is 0.106.
With G29A G74C the figure was 0.0831; with G28U G35C, 0.13; with G28U G35A, 0.0213.
Regarding G28C U72A, the self-cleavage worked out at 0.151.
For G28U A77G, the self-cleavage was 0.111.
C30A A51G: the self-cleavage came out at 0.361.
As to G29A C66A, the self-cleavage turned out to be 0.191.
With C30G C48A the figure was 0.0369; with G28U G50A, 0.0791; with C30G G50C, 0.157.
With G29C U47G, the self-cleavage was 0.
On to G29C U47A, for which the self-cleavage stood at 0.214.
For the variant G29C U47C, the self-cleavage worked out at 0.0554.
Take C30U C64U: the self-cleavage was 0.806.
Take G29A G81A: the self-cleavage was 0.138.
Turning to G29A G81C, the self-cleavage stood at 0.0314.
Turning to G29A G52C, the self-cleavage amounted to 0.197.
G29A G52U: the self-cleavage turned out to be 0.153.
Take C30A G35U: the self-cleavage is 0.166.
For the variant C30A G35C, the self-cleavage was found to be 0.0678.
In the case of G28U G31A, the self-cleavage turned out to be 0.0554.
With G28U C32U the figure was 0.041; with C30A G38U, 0.107; with C30U G34A, 0.0875.
With C30A C36A, the self-cleavage is 0.0361.
Regarding C30A A78G, the self-cleavage is 0.309.

For the origin of these results see the RNAGym collection of RNA variant scans (doi:10.7554/elife.80360).
